Laboratory results published in article PMC6486635, “IMP1 KH1 and KH2 domains create a structural platform with unique RNA recognition and re-modelling properties”.

Assays:
IMP1 KH1KH2DD [1] = target: T1, IMP1 KH1KH2DD (Homo sapiens, UniProt Q9NZI8 194-369, K294D;E295D); experiment: ITC; 10 mM sodium phosphate pH 7.4, 50 mM NaCl; ITC 25 C with 2 mM TCEP; BLI 30 C with 0.5 mM TCEP and 0.5 mg/ml BSA; NMR 0.5 mM TCEP; RNAsin 40-100 u/ml; settings: protein: recombinant; tags: 6xHis-GST removed by TEV
T1 sequence (Q9NZI8 194-369 K294D/E295D): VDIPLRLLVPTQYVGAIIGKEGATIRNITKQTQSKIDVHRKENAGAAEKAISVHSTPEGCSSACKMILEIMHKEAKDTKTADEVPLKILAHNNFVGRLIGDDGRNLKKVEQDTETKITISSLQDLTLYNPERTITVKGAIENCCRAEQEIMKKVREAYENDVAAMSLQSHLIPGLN

IMP1 KH1DDKH2 = IMP1 KH1DDKH2 (Homo sapiens, UniProt Q9NZI8 194-369, K213D;E214D); experiment: as above; settings: protein: recombinant; tags: 6xHis-GST removed by TEV
IMP1 KH1DDKH2, sequence (Q9NZI8 194-369 K213D/E214D): as the sequence (Q9NZI8 194-369 K294D/E295D) above, with K20D, E21D, D101K, D102E counted along it

IMP1 KH1KH2 wild type = IMP1 KH1KH2 wild type (Homo sapiens, UniProt Q9NZI8 194-369); experiment: BLI; 10 mM sodium phosphate pH 7.4, 50 mM NaCl; ITC 25 C with 2 mM TCEP; BLI 30 C with 0.5 mM TCEP and 0.5 mg/ml BSA; NMR 0.5 mM TCEP; RNAsin 40-100 u/ml; settings: protein: recombinant; tags: 6xHis-GST removed by TEV; label: 5'-biotin
IMP1 KH1KH2 wild type, sequence (Q9NZI8 194-369): as the sequence (Q9NZI8 194-369 K294D/E295D) above, with D101K, D102E counted along it

IMP1 KH1KH2DD [2] = target: T1, IMP1 KH1KH2DD; experiment: as above; settings: protein: recombinant; tags: 6xHis-GST removed by TEV; label: 5'-biotin

Row | Binder | Kd (IMP1 KH1KH2DD [1]) [nM] | further results
1 | UCCGU (ssRNA) | 500 ± 10 | –
2 | UCAGU (ssRNA) | 1000 ± 30 | –
3 | UCUGU (ssRNA) | 2600 ± 80 | –
4 | UGCGU (ssRNA) | 26000 ± 2000 | –
5 | UCCCG (ssRNA) | – | Kd (IMP1 KH1DDKH2): 100000 ± 4000 nM
6 | UCCGC (ssRNA) | 800 ± 40 | –
7 | CACAGCAUACAUCCUGUCCGUC (ssRNA) [MYCRNA] | – | Kd (IMP1 KH1KH2 wild type): 46 ± 8 nM; Kd (IMP1 KH1KH2DD [2]): 1760 ± 200 nM
8 | UUCCG (ssRNA) | – | Kd (IMP1 KH1DDKH2): 124000 ± 15000 nM
9 | UUCGU (ssRNA) | 25000 ± 2000 | –
10 | UCCCU (ssRNA) | – | binding result (IMP1 KH1KH2DD [1]): no binding
11 | UACGU (ssRNA) | 25000 ± 1000 | –
